How the values were obtained:
Assay in all cases: released glucose by glucose oxidase method; Michaelis-Menten fit
Format in all cases: biochemical, Microbacterium trichothecenolyticum
[1] = substrate: OC[C@H]1O[C@@](CO)(O[C@H]2O[C@H](CO)[C@@H](O)[C@H](O)[C@H]2O)[C@@H](O)[C@@H]1O; conditions: 50 mM citrate-phosphate pH 6.5, 35 °C, 5 min, enzyme printed as rInvDz13
[2] = substrate: OC[C@H]1O[C@H](OC[C@H]2O[C@H](OC[C@H]3O[C@H](O[C@]4(CO)O[C@H](CO)[C@@H](O)[C@@H]4O)[C@H](O)[C@@H](O)[C@@H]3O)[C@H](O)[C@@H](O)[C@H]2O)[C@H](O)[C@@H](O)[C@H]1O; conditions: 50 mM citrate-phosphate pH 6.5, 35 °C, 5 min
[3] = substrate: OC[C@H]1O[C@H](OC[C@H]2O[C@H](O[C@]3(CO)O[C@H](CO)[C@@H](O)[C@@H]3O)[C@H](O)[C@@H](O)[C@@H]2O)[C@H](O)[C@@H](O)[C@H]1O; conditions: 50 mM citrate-phosphate pH 6.5, 35 °C, 5 min

B1: InvDz13 (Microbacterium trichothecenolyticum) (protein)
chain: APVAPAAPELQDGPQPTAHTQQAYAPEDDFTAKWTRADARQLKRLSDPTAGSKQNSMPTELTMPAVAQDFPDMSNEQVWVWDSWPLTDENANQYSVNGQEIIFSLVADRNLVFDERHVFAKIGYFYRPAGVPADERPENGGWTYGGLVFDEGVTGKIFPDQSYSHQTQWSGSARISKGGQIKLFFTDVAFYRNEDGSNRKPYDPRIALSVGKVHANKNGVKLTGFDKVTDLLQADGTYYQTGAQNEFFNFRDPFTFEDPAHPGETYMVFEGNSAMPRETATCNEEDLGYREGDPFAESVEQVNASGATYQIGNVGLAKAKNKDLTEWEFLPPLLSANCVTDQTERPQIYMKDGKYYLFTISHRGTFANGIDGPEGVYGFVGDGIRSDYQPMNSGSGLALGNPTNLNFAGGQPFAPDFNQPIGHFQAYSHYVMPGGLVQSFIDTVGTEGDFRRGGTLAPTVKIDIDGASSAVDYAYGDGGLGGYADIPANINVNPGGKVTPLP
notes: natively purified from culture supernatant of strain Dz13 (DEAE-Sepharose, Sephacryl S100); precursor 537 aa, predicted signal peptide 1-35 (secreted enzyme); kinetics of sucrose printed once as rInvDz13, but no recombinant expression described
Km [1]: 4.5 ± 0.2 mM
kcat [1]: 504 ± 0.1 s^–1
Km [2]: 65.2 ± 3.07 mM
kcat [2]: 2368.3 ± 7.1 s^–1
Km [3]: 14.2 ± 0.7 mM
kcat [3]: 3944 ± 15.3 s^–1
